T1: recombinant soluble extracellular domain of the human CD3 epsilon chain with His6 tag, expressed alone (human)
T1 construct: also called recombinant CD3-epsilon antigen; rCD3-epsilon
T1 chain: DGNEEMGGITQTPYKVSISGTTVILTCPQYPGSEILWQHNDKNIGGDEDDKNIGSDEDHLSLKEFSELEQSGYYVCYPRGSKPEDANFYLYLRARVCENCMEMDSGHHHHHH

B1: human anti-human CD3 scFv 3-190 (FLAG-tagged) (scFv)
scFv: ELQLVEWGAGLLKPSETLSLTCAVYGGSFSGYYWSWIRQPPGKGLEWIGEINHSGSTNYNPSLKSRVTISVDTSKNQFSLKLSSVTAADTAVYYCARGRGRFLGWLLGGSNWFDPWGQGTLVTVSSGGGGSGGGGSGGGGSELVMTQSPSSLSASVGDRVTITCRASQGISNYLNWYQQKPGKAPKLLIYDASNLETGVPSRFSGSGSGTDFTLTISSLQPEDFATYYCQQSYSTPYTFGQGTKVDIKTGDYKDDDDK
notes: VH-(G4S1)3-VL scFv from huLIB-STE, tested as crude periplasmic preparation
B2: human anti-human CD3 scFv 3-550 (FLAG-tagged) (scFv)
scFv: ELQLVESGPGLVKPSQTLSLTCAISGDSVSSNSAAWNWIRQSPSRGLEWLGRTYYRSKWYNDYAVSVKSRITINPDTSKNQFSLQLNSVTPEDTAVYYCARDRRRIAARQYYGMDVWGQGTTVTVSSGGGGSGGGGSGGGGSELVLTQSPGTLSLSPGERATLSCRASQSVSSNYLAWYQQKPGQAPRLLIYGASSRATGIPDRFSGSGSGTDFTLTISSLQPEDVATYYCQKYNSAPLTFGGGTKVEIKTGDYKDDDDK
notes: as for B1
B3: human anti-human CD3 scFv 4-48 (FLAG-tagged) (scFv)
scFv: ELQLVESGPVLVKPTDTLTLTCTVSGFSLNNPRMGVSWIRQPPGKTLEWLAHIFPSDAKAHSASLKSRLTISKDTSKSQVVPTMTNMDPVDTATYYCARILGEYYPPAWFDPWGQGTLVTVSSGGGGSGGGGSGGGGSELVMTQSPDSLAVSLGERATINCKSSQSVLYSSNNKNYLAWYQQKPGQPPKLLIYWASTRESGVPDRFSGSGSGTDFTLTISSLQAEDVAVYYCQQYLKIPYTFGQGTKVEIKTGDYKDDDDK
notes: VH-(G4S1)3-VL scFv from huLIB-STE, tested as crude periplasmic preparation; also called clone 4-48
B4: human anti-human CD3 scFv 4-10 (FLAG-tagged) (scFv)
scFv: ELQLVESGGGLVQPGGSLRLSCAASGFTFSSYAMGWVRQAPGKGLEWVSAVSGSGGSTYYADSVKGRFTISRDNSKNTLYLQMNSLRAEDTAVYYCAKAKFLGHYYGMDVWGQGTTVTVSSGGGGSGGGGSGGGGSELQMTQSPSSLSASVGDRVTITCRASQSISSYLNWYQQKPGKAPKLLIYAASSLQSGVPSRFSGSGSGTEFTLTISSLQPEDFATYYCLQHNAYPYTFGQGTKVEIKTGDYKDDDDK
notes: VH-(G4S1)3-VL scFv from huLIB-ST, tested as crude periplasmic preparation; Flag-tag put at the C-terminus because it replaces the vector's His6-tag; also called construct 4-10
B5: human anti-human CD3 scFv 3-106 (FLAG-tagged) (scFv)
scFv: ELQLVESGGGVVQPGRSLRLSCAASGFTFSSYGMHWVRQAPGKGLEWVAVISYDGSNKYYADSVKGRFTISRDNSKNTLYLQMNSLRSEDTAVYYCARLSPYCTNGVCWDAFDIWGQGTMVTVSSGGGGSGGGGSGGGGSELQMTQSPSSLSASVGDRVSITCRASQTISNYLNWYQLKPGKAPKLLIYAASTLQSEVPTRFSGSGSGTDFTLTISGLHPEDFATYYCQQFNSYPRTFGQGTKVEIKTGDYKDDDDK
notes: VH-(G4S1)3-VL scFv from huLIB-ST, tested as crude periplasmic preparation
B6: human anti-human CD3 scFv 3-148 (FLAG-tagged) (scFv)
scFv: ELQLVESGPGLVKPSGTLSLTCAVSGGSISSRNWWSWVRQPPGKGLEWIGDIYHSGSTNYNPSLKSRVTISVDKSKNQFSLKLSSVTAADTAVYYCASGYTSCRDAFDIWGQGTMVTVSSGGGGSGGGGSGGGGSELVMTQSPSSLSASVGDRVTITCRASQGIGNYLAWYQQKPGQPPKMLIYWASIRESGVPDRFSGSGSGTDFTLTISSLQAEDVAVYYCQQYYSNPQTFGQGTKVEIKTGDYKDDDDK
notes: as for B5
B7: human anti-human CD3 scFv 3-114 (FLAG-tagged) (scFv)
scFv: ELQLVESGGGLVKPGRSLRLSCTASGFTFGDYAMSWFRQAPGKGLEWVGFIRSKAYGGTTEYAASVKGRFTISRDDSKSIAYLQMNSLKTEDTAVYYCTPQLWLLQDAFDIWGQGTMVTVSSGGGGSGGGGSGGGGSELQMTQSPSSLSASVGDRVTITCRASQGISNYLAWYQQKPGKVPKLLIYAASTLQSGVPSRFSGSGSGTDFTLTISSLQPEDFATYYCQQSYSTPPTFGQGTKLEIKTGDYKDDDDK
notes: as for B5
B8: human anti-human CD3 scFv 3-271 (FLAG-tagged) (scFv)
scFv: ELQLVEWGAGLLKPSETLSLTCAVYGGSFSGYYWSWIRQPPGKGLEWIGEINHSGSTNYNPSLKSRVTISVDTSKNQFSLKLSSVTAADTAVYYCARGPDRMGHGFDIWGQGTMVTVSSGGGGSGGGGSGGGGSELQMTQSPSSLSASVGDRVTITCRASQSISSYLNWYQQKSGKAPKLLIYAASSLQSGVPSRFSGSGSGTDFTLTISSLQPEDFATYYCQQSYSSPWTFGQGTKVEIKTGDYKDDDDK
notes: as for B1

Molecular target: T2, BSA (blocking agent) (UniProt P02769 25-607)
T2 construct: Specificity control of the ELISA
T2 sequence (P02769 25-607 limits assumed): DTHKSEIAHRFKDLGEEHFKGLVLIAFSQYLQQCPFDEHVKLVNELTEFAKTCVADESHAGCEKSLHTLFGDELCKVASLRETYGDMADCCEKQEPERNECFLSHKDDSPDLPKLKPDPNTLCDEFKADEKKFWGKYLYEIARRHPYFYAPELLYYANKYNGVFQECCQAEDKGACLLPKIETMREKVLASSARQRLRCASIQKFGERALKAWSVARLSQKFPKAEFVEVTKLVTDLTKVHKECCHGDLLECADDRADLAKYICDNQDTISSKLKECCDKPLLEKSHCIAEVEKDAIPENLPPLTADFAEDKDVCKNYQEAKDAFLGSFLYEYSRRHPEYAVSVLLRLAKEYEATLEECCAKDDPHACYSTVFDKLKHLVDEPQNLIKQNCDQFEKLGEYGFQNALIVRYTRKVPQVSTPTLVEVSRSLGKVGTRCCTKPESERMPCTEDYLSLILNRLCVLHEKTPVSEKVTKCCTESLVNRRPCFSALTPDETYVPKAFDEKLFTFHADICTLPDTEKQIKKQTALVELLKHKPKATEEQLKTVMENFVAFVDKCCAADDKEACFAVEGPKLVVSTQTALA
Assay: ELISA on uncoated plates blocked with PBS 3% BSA, periplasmic preparation
Method: (§1) FIG. 15: ELISA-analysis of periplasmic preparations containing Flag-tagged scFv protein fragments from selected clones. […] Detection was performed by a monoclonal anti-Flag antibody followed by a peroxidase-conjugated polyclonal goat anti-mouse antibody. The ELISA was developed by an ABTS-substrate solution as described in example 3. The OD-values (Y-axis) were measured at 405 nm by an ELISA-reader. Clone numbers are presented on the X-axis, where the first number of the clone number indicates the round of panning in which the respective clone was obtained, while the second number indicates the respective clone of this round. Periplasmic preparation from cells producing the anti-CD3 scFv L2K was included, as well as the purified anti-CD3 antibodies UCHT1, SP34 and OKT3 (concentration of each 1 µg/ml).
(§2) ELISA experiments were carried out by coating the recombinant CD3 epsilon on wells of 96 well plastic plates (Nunc, maxisorb) typically at 4° C. over night. […] After removal of the blocking solution, PPPs and control solutions were added to the wells and incubated for typically one hour at room temperature. The wells were then washed three times with PBS/0.05% Tween 20. Detection of scFvs and control antibodies bound to immobilized antigen was Carried out using a monoclonal murine anti-His6 or anti FLAG-tag antibody (Qiagen anti-PentaHis and M2 anti Flag Sigma, typically each at a final concentration of 1 µg/ml PBS) detected with a peroxidase-labeled polyclonal goat anti- (mouse Fab-fragment) antibody (Dianova, 1 µg/ml PBS). The signal was developed by adding ABTS substrate solution and measured at a wavelength of 405 nm. Unspecific binding of the test-samples to the blocking agent was examined by carrying out the identical assays with the identical reagents and identical timing on ELISA plates which were not coated but blocked with BSA, only.

| Binder | binding result |
| --- | --- |
| B1 | no binding |
| B2 | no binding |
| B3 | no binding |
| B4 | no binding |
| B5 | no binding |
| B6 | no binding |
| B7 | no binding |
| B8 | no binding |

Molecular target: T3, human CD3 complex, native, on CD3-positive human T cells (human, UniProt P07766 23-207; P09693 23-182; P04234 22-171)
T3 construct: whole, on cells; Presented as part of the TCR/CD3 complex on Jurkat cells (flow cytometry) and on the CD4-positive T cell clone CB15 (cytotoxicity assays); also called CD3 on Jurkat cells; CD3+ Jurkat cells
Assay: conclusion from ELISA (FIGS. 14 and 15) and flow cytometry on Jurkat cells
Target sequence in this assay (P07766 23-207, chain 1 of 3): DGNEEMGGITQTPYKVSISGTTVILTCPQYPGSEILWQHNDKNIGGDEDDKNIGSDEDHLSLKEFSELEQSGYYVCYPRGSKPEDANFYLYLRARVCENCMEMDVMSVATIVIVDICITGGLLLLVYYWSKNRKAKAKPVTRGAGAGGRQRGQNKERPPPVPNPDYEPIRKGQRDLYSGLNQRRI
Target sequence in this assay (P09693 23-182, chain 2 of 3): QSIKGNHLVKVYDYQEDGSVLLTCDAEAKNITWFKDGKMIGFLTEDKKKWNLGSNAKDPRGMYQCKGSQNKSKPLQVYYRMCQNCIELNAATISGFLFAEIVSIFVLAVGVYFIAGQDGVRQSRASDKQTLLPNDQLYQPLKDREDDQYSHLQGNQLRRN
Target sequence in this assay (P04234 22-171, chain 3 of 3): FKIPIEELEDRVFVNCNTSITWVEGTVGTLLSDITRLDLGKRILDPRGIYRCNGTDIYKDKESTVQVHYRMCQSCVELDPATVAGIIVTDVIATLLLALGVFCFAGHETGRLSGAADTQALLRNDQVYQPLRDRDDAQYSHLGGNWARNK

| Binder | binding result |
| --- | --- |
| B4 | binds |
| B5 | binds |
| B6 | binds |
| B7 | binds |

Molecular target: T3, human CD3 complex, native, on …
Assay: flow cytometry screening on Jurkat cells, periplasmic preparation
Method: Periplasmic preparations of soluble scFv protein fragments were added to CD3-positive Jurkat cells. Detection was performed by a 1.0 monoclonal anti-Flag antibody followed by a PE-labeled polyclonal anti-mouse antibody. ScFvs binding to cells was measured by an increase in fluorescence intensity as compared to cells that were incubated with PBS alone: Fluorescence intensity is blotted on the X-axis, the number of events is blotted on the Y-axis. The negative control is shown in black, the respective scFvs are shown in gray. Shifting to the right indicates positive binding to the cells. Periplasmic preparation from cells producing the anti-CD3 scFv L2K was included, as well as the purified anti-CD3 antibodies UCHT1, SP34 and OKT3 (concentration of each 5 µg/ml).
Target sequence in this assay (P09693 23-182, chain 2 of 2): as the sequence (P09693 23-182, chain 2 of 3) above
Target sequence in this assay (P04234 22-171, chain 3 of 2): as the sequence (P04234 22-171, chain 3 of 3) above

| Binder | binding result |
| --- | --- |
| B1 | binds |
| B2 | binds |
| B3 | binds |

Molecular target: T1, recombinant soluble extracellular …
Assay: ELISA on coated recombinant CD3-epsilon, periplasmic preparation, anti-Flag detection
Method: as §1, with “14: CD3-specific” for “15:”, “Example” for “example”
as §2

| Binder | binding result |
| --- | --- |
| B1 | binds |
| B2 | binds |
| B3 | binds |
| B4 | binds |
| B5 | binds |
| B6 | binds |
| B7 | binds |
